Among the data in publication PMC10391610, “Survivin prevents the polycomb repressor complex 2 from methylating histone 3 lysine 27” (iScience, 2023) are Integrated FI (units of the maximum FI per peptide) and Average FI (%) values, retold here.

Holding throughout (test): peptide or protein array; PEPperCHIP microarray of 15 amino acid peptides with 10 amino acid overlap, immobilised; survivin at 1 μg/ml (53.5 nM monomer) in incubation buffer; stained with 6x His Tag Antibody DyLight680; LI-COR Odyssey read-out
Test [1] deals with microarray peptides covering JARID2 170–194 (human).
Test [2] addresses microarray peptides covering EZH2 172–211 (human).
Test [3] addresses microarray peptides covering EED 128–152 (human).
The target in test [4] is microarray peptides covering SUZ12 573–597 (human).
[5] abbreviates: scale: % of maximum fluorescence intensity units.

Chain of survivin (His-tagged, from pHIS8) (O15392 whole entry): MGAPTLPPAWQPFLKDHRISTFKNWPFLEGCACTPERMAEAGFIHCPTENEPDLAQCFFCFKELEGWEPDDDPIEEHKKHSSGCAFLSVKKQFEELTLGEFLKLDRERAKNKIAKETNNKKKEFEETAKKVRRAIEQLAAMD

With “survivin (His-tagged, from pHIS8) (from UniProt O15392 1-142) (natural protein)”, the Integrated FI (units of the maximum FI per peptide) in test [1] is 3; in test [2], 4.28; in test [3], 0.31; in test [4] it was 0.6. Further, the Average FI (%) in test [1] (setting [5]) amounted to 100; in test [2] (setting [5]), 71; in test [3] (setting [5]) it was 10; in test [4] (setting [5]) it was 20.
